For one series, the system named is MYC Pu22 G4 variants. Put plainly: G4 microarray direct binding to loop length, loop sequence and tail variants. Set-up: species or system human. The text has this: Three Agilent DNA microarrays (TABLE 1) were designed, each with four identical sectors that contain ca.177,440 ssDNA 60-mers to examine G4-binding specificity. Arrays were designed with 9-73 replicates of each unique sequence to ensure statistical significance (TABLE 1). Each microarray contains different sets of G4 variants designed to examine several sequence parameters that affect G4 formation and binding specificity such as loop length (Design 1), loop sequence (Design 2), tail sequence (Design 2), and single nucleotide variants of six known G4s (Design 3). […]
The effect of specific sequence parameters on molecule binding was examined. […] Distinct patterns within the best-bound sequences were identified, including flexibility for the nucleotides in the central loop of the G4 and an overall preference for thymines in loops (FIG. 3F), consistent with previous findings that T nucleotides in loops have a greater propensity for folding into G4s than other nucleotides.^39 Different tail sequence ([…] (SEQ ID NO: 3)) preferences were found for all measured molecules (FIG. 3G), further underscoring the utility of the platform in identifying sequence features important for G4 binding and highlighting tail sequences in determining binding specificity. […]

Series [1] relates to genomic G4 sequences (folded G4 structures). Put plainly: G4 microarray binding in potassium vs lithium. Also noted: species or system human. Conditions: GST-tagged proteins. As for the experimental part:
The binding specificities of several molecules were evaluated. Microarrays were preincubated with 100 mM potassium chloride to induce G4 formation. Binding of each molecule is measured by detection of fluorescence intensity at each of the microarray features. BG4 and pyridostatin were conjugated with Cy5. Cellular proteins were expressed as chimeric proteins containing GST, and binding for these proteins was detected using an anti-GST antibody conjugated with Cy5 (Materials and Methods). G4 Structures Fold on DNA Microarrays. To evaluate the utility of DNA microarrays to examine G4-binding specificity, a Cy5-labeled pyridostatin (Cy5-PDS), a small molecule known to bind broadly to G4 structures, was synthesized.^13 A Cy5 conjugated version of BG4 (Cy5-BG4), an antibody developed to bind G4s, was also obtained.^31 FIG. 1A, B presents replicate binding intensities to 15,491 DNA sequences on the Design 3 microarray using either Cy5-PDS or Cy5-BG4. For Cy5-PDS, robust binding is observed at 1 μM, with fluorescence intensities ranging over 100-fold between strongest and weakest bound DNA features. The fluorescence-binding intensities of Cy5-PDS are proportional to the concentration of pyridostatin used). […] Antibody binding to non-G4 features increases with higher concentrations, and in some cases non-G4 sequences are more strongly bound by Cy5-BG4 than G4 sequences, including multiple cytosine-rich negative control sequences. Inhibition of G4 Formation Inhibits Cy5-PDS and Cy5-BG4 Binding. Cy5-PDS and Cy5-BG4 binding under conditions that inhibit G4 formation was examined to evaluate if G4 structures form on the microarray and are required for binding. […] It is noted that many sequences, in addition to the oncogene G4 sequences, are capable of forming G4s. […] For Cy5-BG4, the decrease in binding was up to 270-fold for genomic G4 sequences, while binding to negative controls decreased up to 23-fold (FIG. 1D,). In a second experiment, Cy5-PDS binding following a primer extension reaction that produces dsDNA^24 was examined (see Materials and Methods), anticipating that dsDNA would predominate over G4 formation^13. […] 2,27,28
Microarrays were preincubated with a 100 mM potassium chloride solution for 1 h at RT to induce G4 formation. Protein binding microarray experiments were then performed as previously described.^23 Microarrays were blocked with 4% nonfat dry milk in a potassium phosphate buffer before incubation with proteins or small molecules. Expressed proteins were blocked with 4% nonfat dry milk, ssDNA, and BSA. For the validation experiments, microarrays were also treated with 100 mM lithium chloride to inhibit G4 formation. For experiments examining dsDNA, single-stranded DNA probes were made double-stranded using a primer complementary to a 24-mer constant sequence following the method described previously.^23,24 Double stranding efficiency was monitored using 4% Cy3-dCTP.
Protein or molecule-bound microarrays were scanned with the G5761A SureScan Dx Microarray Scanner System (Agilent) to detect a Cy5 signal at two laser settings (30 and 100 PMT) to ensure signal intensities were below saturation. Spot intensities from microarray images were extracted using the Agilent Feature Extraction Software and are reported as raw fluorescence units. All binding assays were performed at least twice, with high agreement between replicates (R>0.8). Microarrays with the fewest number of saturated spots were used for further analysis. Median intensity was then computed for probes containing identical sequence on each microarray. […]

The text below walks through data of patent US20210333284A1, “METHODS AND MATERIALS FOR LARGE-SCALE ASSESSMENT OF LIGAND BINDING SELECTIVITY OF G-QUADRUPLEX RECOGNITION USING CUSTOM G4 MICROARRAYS” (Purdue Research Foundation, priority 2020, published 2021).

B1: FANCJ: GST-tagged human BRCA1-binding helicase-like protein / Fanconi anemia group J protein (protein, listed as Homo sapiens)
chain: MSSMWSEYTIGGVKIYFPYKAYPSQLAMMNSILRGLNSKQHCLLESPTGSGKSLALLCSALAWQQSLSGKPADEGVSEKAEVQLSCCCACHSKDFTNNDMNQGTSRHFNYPSTPPSERNGTSSTCQDSPEKTTLAAKLSAKKQASIYRDENDDFQVEKKRIRPLETTQQIRKRHCFGTEVHNLDAKVDSGKTVKLNSPLEKINSFSPQKPPGHCSRCCCSTKQGNSQESSNTIKKDHTGKSKIPKIYFGTRTHKQIAQITRELRRTAYSGVPMTILSSRDHTCVHPEVVGNFNRNEKCMELLDGKNGKSCYFYHGVHKISDQHTLQTFQGMCKAWDIEELVSLGKKLKACPYYTARELIQDADIIFCPYNYLLDAQIRESMDLNLKEQVVILDEAHNIEDCARESASYSVTEVQLRFARDELDSMVNNNIRKKDHEPLRAVCCSLINWLEANAEYLVERDYESACKIWSGNEMLLTLHKMGITTATFPILQGHFSAVLQKEEKISPIYGKEEAREVPVISASTQIMLKGLFMVLDYLFRQNSRFADDYKIAIQQTYSWTNQIDISDKNGLLVLPKNKKRSRQKTAVHVLNFWCLNPAVAFSDINGKVQTIVLTSGTLSPMKSFSSELGVTFTIQLEANHIIKNSQVWVGTIGSGPKGRNLCATFQNTETFEFQDEVGALLLSVCQTVSQGILCFLPSYKLLEKLKERWLSTGLWHNLELVKTVIVEPQGGEKTNFDELLQVYYDAIKYKGEKDGALLVAVCRGKVSEGLDFSDDNARAVITIGIPFPNVKDLQVELKRQYNDHHSKLRGLLPGRQWYEIQAYRALNQALGRCIRHRNDWGALILVDDRFRNNPSRYISGLSKWVRQQIQHHSTFESALESLAEFSKKHQKVLNVSIKDRTNIQDNESTLEVTSLKYSTPPYLLEAASHLSPENFVEDEAKICVQELQCPKIITKNSPLPSSIISRKEKNDPVFLEEAGKAEKIVISRSTSPTFNKQTKRVSWSSFNSLGQYFTGKIPKATPELGSSENSASSPPRFKTEKMESKTVLPFTDKCESSNLTVNTSFGSCPQSETIISSLKIDATLTRKNHSEHPLCSEEALDPDIELSLVSEEDKQSTSNRDFETEAEDESIYFTPELYDPEDTDEEKNDLAETDRGNRLANNSDCILAKDLFEIRTIKEVDSAREVKAEDCIDTKLNGILHIEESKIDDIDGNVKTTWINELELGKTHEIEIKNFKPSPSKNKGMFPGFK
modifications: GST tag
For the molecule B1, in the series with MYC Pu22 G4 variants (loop length variants), the “correlation (R) of loop length of the MYC Pu22 G4 vs binding intensity” value was “strongest effect”. In addition, the “effect of lithium chloride (inhibiting G4 formation) on protein binding” value in series [1] was “weakened binding”.

B2: DHX36: GST-tagged human DHX36/G4R1/MLEL1 helicase (protein, listed as Homo sapiens)
chain: MSYDYHQNWGRDGGPRSSGGGYGGGPAGGHGGNRGSGGGGGGGGGGRGGRGRHPGHLKGREIGMWYAKKQGQKNKEAERQERAVVHMDERREEQIVQLLNSVQAKNDKESEAQISWFAPEDHGYGTEVSTKNTPCSENKLDIQEKKLINQEKKMFRIRNRSYIDRDSEYLLQENEPDGTLDQKLLEDLQKKKNDLRYIEMQHFREKLPSYGMQKELVNLIDNHQVTVISGETGCGKTTQVTQFILDNYIERGKGSACRIVCTQPRRISAISVAERVAAERAESCGSGNSTGYQIRLQSRLPRKQGSILYCTTGIILQWLQSDPYLSSVSHIVLDEIHERNLQSDVLMTVVKDLLNFRSDLKVILMSATLNAEKFSEYFGNCPMIHIPGFTFPVVEYLLEDVIEKIRYVPEQKEHRSQFKRGFMQGHVNRQEKEEKEAIYKERWPDYVRELRRRYSASTVDVIEMMEDDKVDLNLIVALIRYIVLEEEDGAILVFLPGWDNISTLHDLLMSQVMFKSDKFLIIPLHSLMPTVNQTQVFKRTPPGVRKIVIATNIAETSITIDDVVYVIDGGKIKETHFDTQNNISTMSAEWVSKANAKQRKGRAGRVQPGHCYHLYNGLRASLLDDYQLPEILRTPLEELCLQIKILRLGGIAYFLSRLMDPPSNEAVLLSIRHLMELNALDKQEELTPLGVHLARLPVEPHIGKMILFGALFCCLDPVLTIAASLSFKDPFVIPLGKEKIADARRKELAKDTRSDHLTVVNAFEGWEEARRRGFRYEKDYCWEYFLSSNTLQMLHNMKGQFAEHLLGAGFVSSRNPKDPESNINSDNEKIIKAVICAGLYPKVAKIRLNLGKKRKMVKVYTKTDGLVAVHPKSVNVEQTDFHYNWLIYHLKMRTSSIYLYDCTEVSPYCLLFFGGDISIQKDNDQETIAVDEWIVFQSPARIAHLVKELRKELDILLQEKIESPHPVDWNDTKSRDCAVLSAIIDLIKTQEKATPRNFPPRFQDGYYS
modifications: GST tag
notes: GST-tagged human DHX36/G4R1/MLEL1 helicase
B2: the “tail (flanking) sequence preference in direct binding” value with MYC Pu22 G4 variants (NNGGGTGGGGAGGGTGGGNN variants, no competitor) is “preferentially binds MYC22 G4 variants containing pyrimidines (C/T) at the 5′ end of the G4”. In series [1], the “effect of lithium chloride (inhibiting G4 formation) on protein binding” value was “weakened binding”.
